T1: PDZRN3_1, Q9UPQ7
T1 sequence (Q9UPQ7 244-349, limits assumed, looked up): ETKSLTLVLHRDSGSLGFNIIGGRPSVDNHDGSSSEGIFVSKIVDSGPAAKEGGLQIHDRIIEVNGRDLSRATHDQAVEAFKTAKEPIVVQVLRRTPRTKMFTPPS

T2: DLG3_3, Q92796
T2 sequence (Q92796 374-475, limits assumed, looked up): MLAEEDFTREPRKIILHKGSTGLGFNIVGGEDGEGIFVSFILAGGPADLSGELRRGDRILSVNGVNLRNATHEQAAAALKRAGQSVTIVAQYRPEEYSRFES

T3: APBA3_1, O96018
T3 sequence (O96018 389-490, limits assumed, looked up): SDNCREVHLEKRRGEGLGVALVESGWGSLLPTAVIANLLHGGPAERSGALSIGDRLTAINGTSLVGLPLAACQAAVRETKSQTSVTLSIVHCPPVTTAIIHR

T4: LRRC7, Q96NW7
T4 sequence (Q96NW7 1440-1537, limits assumed, looked up): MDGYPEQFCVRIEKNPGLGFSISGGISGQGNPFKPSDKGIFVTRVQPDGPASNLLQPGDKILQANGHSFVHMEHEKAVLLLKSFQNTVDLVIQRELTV

T5: PDZD2_2, O15018
T5 sequence (O15018 329-429, limits assumed, looked up): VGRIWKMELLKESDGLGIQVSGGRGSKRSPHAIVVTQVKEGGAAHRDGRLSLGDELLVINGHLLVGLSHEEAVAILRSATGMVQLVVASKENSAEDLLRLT

T6: LNX2_3, Q8N448
T6 sequence (Q8N448 463-564, limits assumed, looked up): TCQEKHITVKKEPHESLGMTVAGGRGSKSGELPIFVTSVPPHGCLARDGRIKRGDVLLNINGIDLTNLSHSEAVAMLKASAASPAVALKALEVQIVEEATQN

T7: NHERF3_4, Q5T2W1
T7 sequence (Q5T2W1 373-468, limits assumed, looked up): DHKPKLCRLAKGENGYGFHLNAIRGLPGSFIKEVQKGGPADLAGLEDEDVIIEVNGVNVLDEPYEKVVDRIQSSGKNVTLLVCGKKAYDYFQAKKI

T8: SIPA1L2, Q9P2F8
T8 sequence (Q9P2F8 945-1036, limits assumed, looked up): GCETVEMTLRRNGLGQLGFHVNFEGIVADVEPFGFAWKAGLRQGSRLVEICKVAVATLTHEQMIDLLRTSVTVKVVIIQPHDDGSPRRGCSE

T9: SHANK1, Q9Y566
T9 sequence (Q9Y566 658-767, limits assumed, looked up): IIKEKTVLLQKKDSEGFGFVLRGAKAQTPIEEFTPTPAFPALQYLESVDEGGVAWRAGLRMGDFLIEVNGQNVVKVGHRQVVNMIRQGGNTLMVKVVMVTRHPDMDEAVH

B1: GAB3, Q8WWW8 (peptide)
chain: EWTDERQSKV
B2: CLDN9, O95484 (peptide)
chain: ASGLDKRDYV
B3: PLEKHG7, Q6ZR37 (peptide)
chain: FTLPAESSEI
B4: ADGRA2, Q96PE1 (peptide)
chain: TGLWKSETTV

What was measured:
Assay in all cases: holdup assay
Design in all cases: key: below the threshold = too weak to quantify, mostly under pKd 3.1 to 4
Settings in all cases: plain residues with an end cap or a label only (N-terminal biotin on a linker: ado-ado)
SNX27, Q96L92 = biological target: SNX27, Q96L92
PDZRN3_1, Q9UPQ7 = biological target: T1, PDZRN3_1, Q9UPQ7
MAGI1_2, Q96QZ7 = biological target: MAGI1_2, Q96QZ7
Chain of MAGI1_2, Q96QZ7 (Q96QZ7 456-580): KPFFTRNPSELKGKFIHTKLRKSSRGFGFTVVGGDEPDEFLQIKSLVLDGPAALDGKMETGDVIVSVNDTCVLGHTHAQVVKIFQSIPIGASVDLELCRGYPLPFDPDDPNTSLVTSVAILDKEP

FRMPD4, Q14CM0 = biological target: FRMPD4, Q14CM0
Chain of FRMPD4, Q14CM0 (Q14CM0 67-160): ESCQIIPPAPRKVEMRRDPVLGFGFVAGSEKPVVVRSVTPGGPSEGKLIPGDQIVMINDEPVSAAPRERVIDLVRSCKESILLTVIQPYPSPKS

GIPC2, Q8TF65 = biological target: GIPC2, Q8TF65
Chain of GIPC2, Q8TF65 (Q8TF65 112-203): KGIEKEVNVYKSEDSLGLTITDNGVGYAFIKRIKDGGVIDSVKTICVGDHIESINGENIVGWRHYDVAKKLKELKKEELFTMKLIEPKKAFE

LNX1_3, Q8TBB1 = biological target: LNX1_3, Q8TBB1
Chain of LNX1_3, Q8TBB1 (Q8TBB1 500-596): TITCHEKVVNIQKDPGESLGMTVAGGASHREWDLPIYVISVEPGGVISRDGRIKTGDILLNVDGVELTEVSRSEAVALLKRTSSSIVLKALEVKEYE

DLG3_3, Q92796 = biological target: T2, DLG3_3, Q92796
APBA3_1, O96018 = biological target: T3, APBA3_1, O96018
LRRC7, Q96NW7 = biological target: T4, LRRC7, Q96NW7
GORASP1, Q9BQQ3 = biological target: GORASP1, Q9BQQ3
Chain of GORASP1, Q9BQQ3 (Q9BQQ3 1-208): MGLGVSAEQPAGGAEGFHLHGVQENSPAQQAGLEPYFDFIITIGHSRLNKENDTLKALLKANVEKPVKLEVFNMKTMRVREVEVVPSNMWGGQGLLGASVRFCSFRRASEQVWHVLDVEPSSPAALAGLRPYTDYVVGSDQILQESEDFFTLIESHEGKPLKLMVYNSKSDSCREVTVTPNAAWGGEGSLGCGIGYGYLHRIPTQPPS

Inadl_4, Q8NI35 = biological target: Inadl_4, Q8NI35
Chain of Inadl_4, Q8NI35 (Q8NI35 547-651): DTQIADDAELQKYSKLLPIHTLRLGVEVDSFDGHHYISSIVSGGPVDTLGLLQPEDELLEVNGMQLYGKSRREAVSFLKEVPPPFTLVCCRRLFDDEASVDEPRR

DLG5_1, Q8TDM6 = biological target: DLG5_1, Q8TDM6
Chain of DLG5_1, Q8TDM6 (Q8TDM6 617-713): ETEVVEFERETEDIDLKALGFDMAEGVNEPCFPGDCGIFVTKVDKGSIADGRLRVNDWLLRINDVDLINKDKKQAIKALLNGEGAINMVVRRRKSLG

Inadl_1, Q8NI35 = biological target: Inadl_1, Q8NI35
Chain of Inadl_1, Q8NI35 (Q8NI35 113-229): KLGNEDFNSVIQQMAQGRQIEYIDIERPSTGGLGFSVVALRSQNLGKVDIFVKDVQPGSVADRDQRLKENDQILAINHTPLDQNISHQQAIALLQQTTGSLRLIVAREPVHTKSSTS

NOS1, P29475 = biological target: NOS1, P29475
Chain of NOS1, P29475 (P29475 9-101): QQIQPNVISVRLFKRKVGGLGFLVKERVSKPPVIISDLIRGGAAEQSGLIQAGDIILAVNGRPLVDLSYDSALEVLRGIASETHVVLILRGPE

IL16_3, Q14005 = biological target: IL16_3, Q14005
Chain of IL16_3, Q14005 (Q14005 1107-1207): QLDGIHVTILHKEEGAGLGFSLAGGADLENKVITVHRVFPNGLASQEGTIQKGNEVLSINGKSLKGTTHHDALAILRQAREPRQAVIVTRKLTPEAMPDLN

TJP1_3, Q07157 = biological target: TJP1_3, Q07157
Chain of TJP1_3, Q07157 (Q07157 416-512): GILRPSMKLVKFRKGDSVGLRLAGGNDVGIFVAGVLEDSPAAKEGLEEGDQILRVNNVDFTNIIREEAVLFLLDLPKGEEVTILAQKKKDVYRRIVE

PDZD2_2, O15018 = biological target: T5, PDZD2_2, O15018
LNX2_3, Q8N448 = biological target: T6, LNX2_3, Q8N448
NHERF3_4, Q5T2W1 = biological target: T7, NHERF3_4, Q5T2W1
NHERF4_4, Q86UT5 = biological target: NHERF4_4, Q86UT5
Chain of NHERF4_4, Q86UT5 (Q86UT5 464-550): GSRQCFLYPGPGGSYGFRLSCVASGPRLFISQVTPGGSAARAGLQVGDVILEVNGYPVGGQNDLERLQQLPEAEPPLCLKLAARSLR

SIPA1L2, Q9P2F8 = biological target: T8, SIPA1L2, Q9P2F8
SHANK1, Q9Y566 = biological target: T9, SHANK1, Q9Y566
Inadl_9, Q8NI35 = biological target: Inadl_9, Q8NI35
Chain of Inadl_9, Q8NI35 (Q8NI35 1530-1615): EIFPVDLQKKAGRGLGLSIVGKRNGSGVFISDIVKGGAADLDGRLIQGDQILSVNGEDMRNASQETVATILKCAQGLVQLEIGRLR

Inadl_5, Q8NI35 = biological target: Inadl_5, Q8NI35
Chain of Inadl_5, Q8NI35 (Q8NI35 673-780): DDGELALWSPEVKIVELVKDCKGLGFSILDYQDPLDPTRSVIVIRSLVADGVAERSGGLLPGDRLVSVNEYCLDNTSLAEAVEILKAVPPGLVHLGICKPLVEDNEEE

DLG4_3, P78352 = biological target: DLG4_3, P78352
Chain of DLG4_3, P78352 (P78352 306-403): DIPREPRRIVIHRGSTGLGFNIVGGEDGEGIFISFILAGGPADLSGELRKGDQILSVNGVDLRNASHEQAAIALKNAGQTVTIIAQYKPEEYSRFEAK

LIMK2, P53671 = biological target: LIMK2, P53671
Chain of LIMK2, P53671 (P53671 143-248): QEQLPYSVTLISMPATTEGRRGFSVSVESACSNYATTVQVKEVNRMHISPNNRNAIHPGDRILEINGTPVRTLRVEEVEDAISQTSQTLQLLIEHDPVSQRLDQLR

FRMPD2_3, Q68DX3 = biological target: FRMPD2_3, Q68DX3
Chain of FRMPD2_3, Q68DX3 (Q68DX3 1073-1166): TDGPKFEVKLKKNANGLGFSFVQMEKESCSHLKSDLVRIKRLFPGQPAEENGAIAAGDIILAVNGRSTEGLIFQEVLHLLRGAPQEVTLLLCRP

GRID2IP_2, A4D2P6 = biological target: GRID2IP_2, A4D2P6
Chain of GRID2IP_2, A4D2P6 (A4D2P6 272-370): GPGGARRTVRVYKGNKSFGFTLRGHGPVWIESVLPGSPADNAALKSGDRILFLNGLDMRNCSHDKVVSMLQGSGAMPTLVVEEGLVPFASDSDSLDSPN

AHNAK1, Q09666 = biological target: AHNAK1, Q09666
Chain of AHNAK1, Q09666 (Q09666 4-100): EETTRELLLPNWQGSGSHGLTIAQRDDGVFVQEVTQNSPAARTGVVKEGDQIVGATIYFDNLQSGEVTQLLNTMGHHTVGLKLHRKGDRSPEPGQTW

Binder | pKd (SNX27, Q96L92) | pKd (PDZRN3_1, Q9UPQ7) | pKd (MAGI1_2, Q96QZ7) | pKd (FRMPD4, Q14CM0) | pKd (GIPC2, Q8TF65) | pKd (LNX1_3, Q8TBB1) | pKd (DLG3_3, Q92796) | pKd (APBA3_1, O96018) | pKd (LRRC7, Q96NW7) | pKd (GORASP1, Q9BQQ3) | pKd (Inadl_4, Q8NI35) | pKd (DLG5_1, Q8TDM6) | pKd (Inadl_1, Q8NI35) | pKd (NOS1, P29475) | pKd (IL16_3, Q14005) | pKd (TJP1_3, Q07157) | pKd (PDZD2_2, O15018) | pKd (LNX2_3, Q8N448) | pKd (NHERF3_4, Q5T2W1) | pKd (NHERF4_4, Q86UT5) | also measured
B1 | 4.72 | 3.62 | below the threshold | below the threshold | 3.52 | below the threshold | 3.9 | below the threshold | below the threshold | below the threshold | below the threshold | 3.66 | below the threshold | below the threshold | below the threshold | below the threshold | 5.23 | below the threshold | below the threshold | below the threshold | pKd (SIPA1L2, Q9P2F8): below the threshold; pKd (SHANK1, Q9Y566): 3.88; pKd (Inadl_9, Q8NI35): 3.56; pKd (Inadl_5, Q8NI35): below the threshold; pKd (DLG4_3, P78352): below the threshold; pKd (LIMK2, P53671): below the threshold; pKd (FRMPD2_3, Q68DX3): 3.55; pKd (GRID2IP_2, A4D2P6): 4.07; pKd (AHNAK1, Q09666): below the threshold
B2 | 3.62 | below the threshold | below the threshold | below the threshold | below the threshold | below the threshold | below the threshold | below the threshold | below the threshold | below the threshold | below the threshold | below the threshold | below the threshold | 4.22 | below the threshold | below the threshold | 5.04 | below the threshold | below the threshold | below the threshold | pKd (SIPA1L2, Q9P2F8): below the threshold; pKd (SHANK1, Q9Y566): below the threshold; pKd (Inadl_9, Q8NI35): 3.51; pKd (Inadl_5, Q8NI35): below the threshold; pKd (DLG4_3, P78352): below the threshold; pKd (LIMK2, P53671): below the threshold; pKd (FRMPD2_3, Q68DX3): below the threshold; pKd (GRID2IP_2, A4D2P6): below the threshold; pKd (AHNAK1, Q09666): below the threshold
B3 | below the threshold | below the threshold | below the threshold | below the threshold | below the threshold | below the threshold | below the threshold | below the threshold | below the threshold | below the threshold | below the threshold | below the threshold | below the threshold | below the threshold | below the threshold | below the threshold | 5.12 | below the threshold | below the threshold | below the threshold | pKd (SIPA1L2, Q9P2F8): below the threshold; pKd (SHANK1, Q9Y566): 4.17; pKd (Inadl_9, Q8NI35): below the threshold; pKd (Inadl_5, Q8NI35): below the threshold; pKd (DLG4_3, P78352): below the threshold; pKd (LIMK2, P53671): below the threshold; pKd (FRMPD2_3, Q68DX3): below the threshold; pKd (GRID2IP_2, A4D2P6): 4.2; pKd (AHNAK1, Q09666): below the threshold
B4 | 5.4 | 4.07 | 4.92 | below the threshold | 4.04 | below the threshold | 4.47 | below the threshold | 3.56 | 3.5 | below the threshold | below the threshold | below the threshold | 3.56 | below the threshold | below the threshold | 3.81 | below the threshold | below the threshold | below the threshold | pKd (SIPA1L2, Q9P2F8): below the threshold; pKd (SHANK1, Q9Y566): below the threshold; pKd (Inadl_9, Q8NI35): 3.75; pKd (Inadl_5, Q8NI35): below the threshold; pKd (DLG4_3, P78352): 4.47; pKd (LIMK2, P53671): below the threshold; pKd (FRMPD2_3, Q68DX3): below the threshold; pKd (GRID2IP_2, A4D2P6): below the threshold; pKd (AHNAK1, Q09666): below the threshold

Source: publication PMC9482650, “Quantitative fragmentomics allow affinity mapping of interactomes” (Nature Communications, 2022)
